T1: human MAdCAM (human, UniProt Q13477 19-317, limits assumed)
T1 construct: also called huMAdCAM; human MAdCAM-1
T1 sequence (looked up): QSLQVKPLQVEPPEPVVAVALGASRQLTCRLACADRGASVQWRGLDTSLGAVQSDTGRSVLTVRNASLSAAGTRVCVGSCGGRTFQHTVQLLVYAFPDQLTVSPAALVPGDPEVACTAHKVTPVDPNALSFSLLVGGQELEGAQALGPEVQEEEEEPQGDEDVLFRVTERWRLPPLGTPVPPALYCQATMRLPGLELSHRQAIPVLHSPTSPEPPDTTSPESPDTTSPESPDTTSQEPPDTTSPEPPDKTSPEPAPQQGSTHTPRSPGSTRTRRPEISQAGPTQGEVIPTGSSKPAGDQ


Target: T1, human MAdCAM
Test: BLI (Octet), binder on AHC tips
Summary of the method: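 Binding was measured on an Octet96 RED instrument using anti-human IgG Fc biosensors, which were first equilibrated in assay buffer for 20 minutes. The tips were then loaded for 240 s with test article at 10 μg/mL in assay buffer, exposed to MAdCAM-1 for 120 s of association, and returned to assay buffer for 120 s of dissociation, with MAdCAM-1 run as a seven-point serial dilution from 200 nM to 3.13 nM. Kinetic rates and the dissociation constant were derived by a global one-to-one fit in the Octet data analysis software.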

Kd | koff | kon | Binder
175 nM | 0.127 s⁻¹ | 725000 M⁻¹ s⁻¹ | PMAB2 (bispecific antibody, human IgG1, kappa) heavy: EVQLLESGGGLVQPGGSLRLSCAASGFTFSNSDMSWVRQAPGKGLEWVSGITISGGSTYYADSVKGRFTISRDNSKNTLYLQMNSLRAEDTAVYYCARGRGGSGWLDYWGQGTLVTVSSASTKGPSVFPLAPSSKSTSGGTAALGCLVKDYFPEPVTVSWNSGALTSGVHTFPAVLQSSGLYSLSSVVTVPSSSLGTQTYICNVNHKPSNTKVDKKVEPKSCDKTHTCPPCPAPEAAGAPSVFLFPPKPKDTLMISRTPEVTCVVVDVSHEDPEVKFNWYVDGVEVHNAKTKPREEQYNSTYRVVSVLTVLHQDWLNGKEYKCKVSNKALPAPIEKTISKAKGQPREPQVYTLPPSREEMTKNQVSLTCLVKGFYPSDIAVEWESNGQPENNYKTTPPVLDSDGSFFLYSKLTVDKSRWQQGNVFSCSVMHEALHNHYTQKSLSLSPGGGGGSGGGGSGGGGSEVQLLESGGGLVQPGGSLRLSCAASGFTFSSYWMHWVRQAPGKGLEWVSAISGSSGSTYYADSVKGRFTISRDNSKNTLYLQMNSLRAEDTAVYYCARDRPYGYYMDVWGKGTTVTVSSGGGGSGGGGSGGGGSGGGGSDIQMTQSPSSLSASVGDRVTITCRASQSISSSLAWYQQKPGKAPKLLIYAASSLQSGVPSRFSGSGSGTDFTLTISSLQPEDFATYYCQQYKSYPVTFGQGTKVEIK light: not shown
41.8 nM | 0.0547 s⁻¹ | 1.31e+06 M⁻¹ s⁻¹ | PMAB4 (bispecific antibody, human IgG1, kappa) heavy: EVQLLESGGGLVQPGGSLRLSCAASGFTFSNSDMSWVRQAPGKGLEWVSGITISGGSTYYADSVKGRFTISRDNSKNTLYLQMNSLRAEDTAVYYCARGRGGSGWLDYWGQGTLVTVSSASTKGPSVFPLAPSSKSTSGGTAALGCLVKDYFPEPVTVSWNSGALTSGVHTFPAVLQSSGLYSLSSVVTVPSSSLGTQTYICNVNHKPSNTKVDKKVEPKSCDKTHTCPPCPAPEAAGAPSVFLFPPKPKDTLMISRTPEVTCVVVDVSHEDPEVKFNWYVDGVEVHNAKTKPREEQYNSTYRVVSVLTVLHQDWLNGKEYKCKVSNKALPAPIEKTISKAKGQPREPQVYTLPPSREEMTKNQVSLTCLVKGFYPSDIAVEWESNGQPENNYKTTPPVLDSDGSFFLYSKLTVDKSRWQQGNVFSCSVMHEALHNHYTQKSLSLSPGGGGGSGGGGSGGGGSEVQLLESGGGLVQPGGSLRLSCAASGFTFSSYWMHWVRQAPGKGLEWVSAISGSSGSTYYADSVKGRFTISRDNSKNTLYLQMNSLRAEDTAVYYCARDRPYGYYMDVWGKGTTVTVSSGGGGSGGGGSGGGGSGGGGSDIQMTQSPSSLSASVGDRVTITCRASQSISRSLAWYQQKPGKAPKLLIYAASSLQSGVPSRFSGSGSGTDFTLTISSLQPEDFATYYCQQYKSYPVTFGQGTKVEIK light: not shown
333 nM | 0.239 s⁻¹ | 717000 M⁻¹ s⁻¹ | PMAB3 (bispecific antibody, human IgG1, kappa) heavy: EVQLLESGGGLVQPGGSLRLSCAASGFTFSNSDMSWVRQAPGKGLEWVSGITISGGSTYYADSVKGRFTISRDNSKNTLYLQMNSLRAEDTAVYYCARGRGGSGWLDYWGQGTLVTVSSASTKGPSVFPLAPSSKSTSGGTAALGCLVKDYFPEPVTVSWNSGALTSGVHTFPAVLQSSGLYSLSSVVTVPSSSLGTQTYICNVNHKPSNTKVDKKVEPKSCDKTHTCPPCPAPEAAGAPSVFLFPPKPKDTLMISRTPEVTCVVVDVSHEDPEVKFNWYVDGVEVHNAKTKPREEQYNSTYRVVSVLTVLHQDWLNGKEYKCKVSNKALPAPIEKTISKAKGQPREPQVYTLPPSREEMTKNQVSLTCLVKGFYPSDIAVEWESNGQPENNYKTTPPVLDSDGSFFLYSKLTVDKSRWQQGNVFSCSVMHEALHNHYTQKSLSLSPGGGGGSGGGGSGGGGSEVQLLESGGGLVQPGGSLRLSCAASGFTFSSYWMHWVRQAPGKGLEWVSAISGSSGSTYYADSVKGRFTISRDNSKNTLYLQMNSLRAEDTAVYYCARDRPYYYYMDVWGKGTTVTVSSGGGGSGGGGSGGGGSGGGGSDIQMTQSPSSLSASVGDRVTITCRASQSISSSLAWYQQKPGKAPKLLIYAASSLQSGVPSRFSGSGSGTDFTLTISSLQPEDFATYYCQQYKSYPVTFGQGTKVEIK light: not shown
150 nM | 0.105 s⁻¹ | 698000 M⁻¹ s⁻¹ | PMAB6 (bispecific antibody, human IgG1, kappa) heavy: EVQLLESGGGLVQPGGSLRLSCAASGFTFSNSDMSWVRQAPGKGLEWVSGITISGGSTYYADSVKGRFTISRDNSKNTLYLQMNSLRAEDTAVYYCARGRGGSGWLDYWGQGTLVTVSSASTKGPSVFPLAPSSKSTSGGTAALGCLVKDYFPEPVTVSWNSGALTSGVHTFPAVLQSSGLYSLSSVVTVPSSSLGTQTYICNVNHKPSNTKVDKKVEPKSCDKTHTCPPCPAPEAAGAPSVFLFPPKPKDTLMISRTPEVTCVVVDVSHEDPEVKFNWYVDGVEVHNAKTKPREEQYNSTYRVVSVLTVLHQDWLNGKEYKCKVSNKALPAPIEKTISKAKGQPREPQVYTLPPSREEMTKNQVSLTCLVKGFYPSDIAVEWESNGQPENNYKTTPPVLDSDGSFFLYSKLTVDKSRWQQGNVFSCSVMHEALHNHYTQKSLSLSPGGGGGSGGGGSGGGGSEVQLLESGGGLVQPGGSLRLSCAASGFTFSSYWMHWVRQAPGKGLEWISAISGSGGSTYYADSVKGRFTISRDNSKNTLYLQMNSLRAEDTAVYYCARDRPYGYYMDVWGKGTTVTVSSGGGGSGGGGSGGGGSGGGGSDIQMTQSPSSLSASVGDRVTITCRASQSISSSLAWYQQKPGKAPKLLIYAASSLQSGVPSRFSGSGSGTDFTLTISSLQPEDFATYYCQQYKSYPVTFGQGTKVEIK light: not shown
413 nM | 0.12 s⁻¹ | 290000 M⁻¹ s⁻¹ | PMAB5 (bispecific antibody, human IgG1, kappa) heavy: EVQLLESGGGLVQPGGSLRLSCAASGFTFSNSDMSWVRQAPGKGLEWVSGITISGGSTYYADSVKGRFTISRDNSKNTLYLQMNSLRAEDTAVYYCARGRGGSGWLDYWGQGTLVTVSSASTKGPSVFPLAPSSKSTSGGTAALGCLVKDYFPEPVTVSWNSGALTSGVHTFPAVLQSSGLYSLSSVVTVPSSSLGTQTYICNVNHKPSNTKVDKKVEPKSCDKTHTCPPCPAPEAAGAPSVFLFPPKPKDTLMISRTPEVTCVVVDVSHEDPEVKFNWYVDGVEVHNAKTKPREEQYNSTYRVVSVLTVLHQDWLNGKEYKCKVSNKALPAPIEKTISKAKGQPREPQVYTLPPSREEMTKNQVSLTCLVKGFYPSDIAVEWESNGQPENNYKTTPPVLDSDGSFFLYSKLTVDKSRWQQGNVFSCSVMHEALHNHYTQKSLSLSPGGGGGSGGGGSGGGGSEVQLLESGGGLVQPGGSLRLSCAASGFTFSSYWMHWVRQAPGKGLEWVSAISGSSGSTYYADSVKGRFTISRDNSKNTLYLQMNSLRAEDTAVYYCARDRPYYYYMDVWGKGTTVTVSSGGGGSGGGGSGGGGSGGGGSDIQMTQSPSSLSASVGDRVTITCRASQSISRSLAWYQQKPGKAPKLLIYAASSLQSGVPSRFSGSGSGTDFTLTISSLQPEDFATYYCQQYKSYPVTFGQGTKVEIK light: not shown
236 nM | 0.136 s⁻¹ | 576000 M⁻¹ s⁻¹ | PMAB7 (bispecific antibody, human IgG1, kappa) heavy: EVQLLESGGGLVQPGGSLRLSCAASGFTFSNSDMSWVRQAPGKGLEWVSGITISGGSTYYADSVKGRFTISRDNSKNTLYLQMNSLRAEDTAVYYCARGRGGSGWLDYWGQGTLVTVSSASTKGPSVFPLAPSSKSTSGGTAALGCLVKDYFPEPVTVSWNSGALTSGVHTFPAVLQSSGLYSLSSVVTVPSSSLGTQTYICNVNHKPSNTKVDKKVEPKSCDKTHTCPPCPAPEAAGAPSVFLFPPKPKDTLMISRTPEVTCVVVDVSHEDPEVKFNWYVDGVEVHNAKTKPREEQYNSTYRVVSVLTVLHQDWLNGKEYKCKVSNKALPAPIEKTISKAKGQPREPQVYTLPPSREEMTKNQVSLTCLVKGFYPSDIAVEWESNGQPENNYKTTPPVLDSDGSFFLYSKLTVDKSRWQQGNVFSCSVMHEALHNHYTQKSLSLSPGGGGGSGGGGSGGGGSEVQLLESGGGLVQPGGSLRLSCAASGFTFSSYWMHWVRQAPGKGLEWISAISGSGGSTYYADSVKGRFTISRDNSKNTLYLQMNSLRAEDTAVYYCARDRPYYYYMDVWGKGTTVTVSSGGGGSGGGGSGGGGSGGGGSDIQMTQSPSSLSASVGDRVTITCRASQSISSSLAWYQQKPGKAPKLLIYAASSLQSGVPSRFSGSGSGTDFTLTISSLQPEDFATYYCQQYKSYPVTFGQGTKVEIK light: not shown
71.4 nM | 0.0469 s⁻¹ | 656000 M⁻¹ s⁻¹ | PMAB8 (bispecific antibody, human IgG1, kappa) heavy: EVQLLESGGGLVQPGGSLRLSCAASGFTFSNSDMSWVRQAPGKGLEWVSGITISGGSTYYADSVKGRFTISRDNSKNTLYLQMNSLRAEDTAVYYCARGRGGSGWLDYWGQGTLVTVSSASTKGPSVFPLAPSSKSTSGGTAALGCLVKDYFPEPVTVSWNSGALTSGVHTFPAVLQSSGLYSLSSVVTVPSSSLGTQTYICNVNHKPSNTKVDKKVEPKSCDKTHTCPPCPAPEAAGAPSVFLFPPKPKDTLMISRTPEVTCVVVDVSHEDPEVKFNWYVDGVEVHNAKTKPREEQYNSTYRVVSVLTVLHQDWLNGKEYKCKVSNKALPAPIEKTISKAKGQPREPQVYTLPPSREEMTKNQVSLTCLVKGFYPSDIAVEWESNGQPENNYKTTPPVLDSDGSFFLYSKLTVDKSRWQQGNVFSCSVMHEALHNHYTQKSLSLSPGGGGGSGGGGSGGGGSEVQLLESGGGLVQPGGSLRLSCAASGFTFSSYWMHWVRQAPGKGLEWISAISGSGGSTYYADSVKGRFTISRDNSKNTLYLQMNSLRAEDTAVYYCARDRPYGYYMDVWGKGTTVTVSSGGGGSGGGGSGGGGSGGGGSDIQMTQSPSSLSASVGDRVTITCRASQSISRSLAWYQQKPGKAPKLLIYAASSLQSGVPSRFSGSGSGTDFTLTISSLQPEDFATYYCQQYKSYPVTFGQGTKVEIK light: not shown

— patent publication US20240010722A1 (published 2024)
